T1: cynomolgus SIRPα (EGM_02252) extracellular domain + His-tag (cynomolgus monkey)
T1 construct: SPR analyte; also called CySIRPα EGM_02252; cynoSIRPα; not shown: His-tag
T1 chain: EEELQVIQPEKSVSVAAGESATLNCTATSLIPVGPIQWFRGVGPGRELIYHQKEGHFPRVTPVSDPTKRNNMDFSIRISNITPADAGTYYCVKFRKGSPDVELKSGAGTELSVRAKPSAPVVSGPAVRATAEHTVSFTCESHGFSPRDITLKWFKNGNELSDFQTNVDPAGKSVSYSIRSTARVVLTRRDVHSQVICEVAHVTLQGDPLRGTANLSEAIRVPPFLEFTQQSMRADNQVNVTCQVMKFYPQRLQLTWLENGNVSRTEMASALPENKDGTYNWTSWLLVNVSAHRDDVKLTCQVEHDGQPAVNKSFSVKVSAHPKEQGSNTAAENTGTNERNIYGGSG

T2: cynomolgus SIRPβ1 (XP_005568598) extracellular domain + His-tag (cynomolgus monkey)
T2 construct: SPR analyte; also called Cyno SIRPβ1 XP_005568598; cynoSIRPβ1; not shown: His-tag
T2 chain: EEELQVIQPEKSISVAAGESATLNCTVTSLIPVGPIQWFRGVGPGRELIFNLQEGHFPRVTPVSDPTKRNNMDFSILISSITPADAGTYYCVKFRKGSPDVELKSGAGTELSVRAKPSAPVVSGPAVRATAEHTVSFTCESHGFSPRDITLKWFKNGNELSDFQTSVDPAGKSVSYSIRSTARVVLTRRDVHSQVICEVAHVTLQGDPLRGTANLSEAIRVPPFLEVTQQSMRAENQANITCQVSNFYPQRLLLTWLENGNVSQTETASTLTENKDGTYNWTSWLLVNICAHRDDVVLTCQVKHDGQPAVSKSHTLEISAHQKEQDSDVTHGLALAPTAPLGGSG

T3: cynomolgus SIRPγ (XP_005568591) extracellular domain + His-tag (cynomolgus monkey, UniProt Q9P1W8 29-359 (human entry))
T3 construct: SPR analyte; also called Cyno SIRPγ XP_005568591; cynoSIRPγ; not shown: His-tag
T3 chain: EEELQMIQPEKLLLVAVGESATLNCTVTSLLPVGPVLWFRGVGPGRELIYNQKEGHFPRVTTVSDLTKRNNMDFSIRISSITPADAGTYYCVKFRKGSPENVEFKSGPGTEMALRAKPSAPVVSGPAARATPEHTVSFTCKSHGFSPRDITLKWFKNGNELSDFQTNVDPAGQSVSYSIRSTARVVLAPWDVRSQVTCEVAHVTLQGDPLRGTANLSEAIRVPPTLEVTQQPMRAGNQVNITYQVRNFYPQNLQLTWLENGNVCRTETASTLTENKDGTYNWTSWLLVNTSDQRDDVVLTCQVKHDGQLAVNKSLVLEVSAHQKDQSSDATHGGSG

T4: cynomolgus SIRPβ1v3 (XP_005568593) extracellular domain + His-tag (cynomolgus monkey)
T4 construct: SPR analyte; also called Cyno SIRPβ1v3 XP_005568593; cynoSIRPβ1v3; not shown: His-tag
T4 chain: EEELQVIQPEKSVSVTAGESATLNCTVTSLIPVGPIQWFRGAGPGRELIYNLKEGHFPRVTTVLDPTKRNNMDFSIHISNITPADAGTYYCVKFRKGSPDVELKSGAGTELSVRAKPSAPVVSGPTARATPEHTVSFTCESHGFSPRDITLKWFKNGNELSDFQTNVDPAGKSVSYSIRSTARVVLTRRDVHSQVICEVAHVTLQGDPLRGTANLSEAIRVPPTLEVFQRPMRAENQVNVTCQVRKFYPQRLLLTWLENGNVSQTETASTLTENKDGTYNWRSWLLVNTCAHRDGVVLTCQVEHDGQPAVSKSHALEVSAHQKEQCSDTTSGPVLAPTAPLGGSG

T5: cynoSIRPα (EGM_02252), Extracellular Domain + His-Tag (cynomolgus monkey)
T5 construct: also called CySIRPα EGM_02252; not shown: His-Tag
T5 chain: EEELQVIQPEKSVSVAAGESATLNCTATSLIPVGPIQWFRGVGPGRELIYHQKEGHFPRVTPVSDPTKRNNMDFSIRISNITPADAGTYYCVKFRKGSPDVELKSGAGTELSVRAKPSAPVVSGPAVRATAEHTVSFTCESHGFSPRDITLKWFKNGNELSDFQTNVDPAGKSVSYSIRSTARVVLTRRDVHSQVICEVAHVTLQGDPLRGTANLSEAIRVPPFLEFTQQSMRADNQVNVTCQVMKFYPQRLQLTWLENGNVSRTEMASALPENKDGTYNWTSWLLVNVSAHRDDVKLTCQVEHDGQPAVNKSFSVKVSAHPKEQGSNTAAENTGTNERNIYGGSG

T6: cynoSIRPα (NP_001271679), Extracellular Domain + His-Tag (cynomolgus monkey)
T6 construct: also called CySIRPα NP_001271679; not shown: His-Tag
T6 chain: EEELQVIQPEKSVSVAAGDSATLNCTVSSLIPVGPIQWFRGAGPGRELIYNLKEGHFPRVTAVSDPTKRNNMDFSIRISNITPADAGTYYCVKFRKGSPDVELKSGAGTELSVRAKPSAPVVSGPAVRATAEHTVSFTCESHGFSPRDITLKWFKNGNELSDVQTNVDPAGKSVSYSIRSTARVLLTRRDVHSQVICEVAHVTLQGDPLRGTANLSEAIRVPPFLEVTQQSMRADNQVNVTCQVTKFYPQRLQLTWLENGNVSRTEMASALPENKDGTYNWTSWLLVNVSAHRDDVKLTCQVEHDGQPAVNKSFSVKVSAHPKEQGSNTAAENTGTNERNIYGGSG

T7: cynoSIRPα (XP_015313155), Extracellular Domain + His-Tag (cynomolgus monkey)
T7 construct: also called CySIRPα XP_015313155; not shown: His-Tag
T7 chain: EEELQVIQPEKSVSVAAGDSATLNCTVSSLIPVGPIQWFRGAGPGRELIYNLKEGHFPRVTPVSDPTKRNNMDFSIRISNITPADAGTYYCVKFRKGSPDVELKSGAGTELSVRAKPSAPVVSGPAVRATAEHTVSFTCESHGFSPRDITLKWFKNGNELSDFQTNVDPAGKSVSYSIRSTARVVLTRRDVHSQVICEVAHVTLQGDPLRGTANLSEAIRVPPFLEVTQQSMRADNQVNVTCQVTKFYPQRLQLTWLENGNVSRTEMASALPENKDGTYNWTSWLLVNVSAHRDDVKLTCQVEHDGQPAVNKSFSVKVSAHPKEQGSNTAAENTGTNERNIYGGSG


Assays:
[1] = molecular target: T1, cynomolgus SIRPα (EGM_02252) …; assay: SPR
Procedure: (§1) The binding affinity of anti-SIRPα antibodies to the various SIRPα analytes is determined by surface plasmon resonance (SPR) using a ProteOn XPR36 (Bio-Rad). The running buffer for this experiment and all dilutions (except where stated) are done in 1×HBS-EP+. […] The sensorchip is deactivated with 1M ethanolamine HCl for 420 sec at a flowrate of 10 μl/min.
(§2) The analyte is injected over the captured antibody for 300 sec at a flowrate of 30 μl/min. The dissociation is done for 600 sec. Two-fold serial dilutions of each SIRP protein (Extracellular Domain+His-Tag) are injected as analyte with the highest concentrations indicated in table 36 below.

[2] = molecular target: T2, cynomolgus SIRPβ1 (XP_005568598) …; assay: SPR
Procedure: as §1, §2

[3] = molecular target: T3, cynomolgus SIRPγ (XP_005568591) …; assay: SPR
Procedure: as §1, §2

[4] = molecular target: T4, cynomolgus SIRPβ1v3 (XP_005568593) …; assay: SPR, antibody captured, ECD-His analyte
Procedure: as §1, §2

[5] = molecular target: T5, cynoSIRPα (EGM_02252), Extracellular …; assay: SPR, antibody captured on Protein A/G, ECD-His analyte
Procedure: (§3) The binding kinetics of anti-SIRPα antibodies to various SIRPα analytes are determined by surface plasmon resonance (SPR) using a Biacore 8K+(Cytiva). 1×HBS-EP+(Cytiva) is used as running buffer and for all the dilutions unless stated otherwise. The Series S CM5 sensorchip is activated with a 1:1 mixture of 0.1 M NHS (N-hydroxysuccinimide) and 0.4 M EDC (1-Ethyl-3-(3-dimethylaminopropyl) carbodiimide hydrochloride) for 420 seconds at a flow rate of 10 μl/min and immobilized with Protein A/G (Thermo Scientific, 10 μg/ml in 10 mM acetate pH 4.5) for 420 seconds at a flowrate of 10 μl/min resulting in approximately 3000 RU of Protein A/G on the surface. The sensorchip is then deactivated with 1 M ethanolamine HCl pH 8.5 for 420 seconds at a flowrate of 10 μl/min.
(§4) Antibodies (approximately 1 ug/ml) are captured on the Protein A/G surface for 60 seconds at a flowrate of 10 μl/min resulting in capture levels of approximately 240 RU. Dilutions of each SIRP protein (Extracellular Domain+His-Tag, with the concentrations as indicated) are injected as analytes over the captured antibody for 300 seconds of association at a flowrate of 30 μl/min, followed by a dissociation for 600 seconds.

[6] = molecular target: T8, Human SIRPαV1 (NP_542970.1), Extracellular Domain + His-Tag (human, UniProt P78324 31-373); assay: SPR, antibody captured on Protein A/G, ECD-His analyte, 1:1 fit
T8 construct: also called huSIRPαV1; hSIRPαV1; not shown: His-Tag
T8 sequence (P78324 other isoform, or with tags, fused parts or gaps): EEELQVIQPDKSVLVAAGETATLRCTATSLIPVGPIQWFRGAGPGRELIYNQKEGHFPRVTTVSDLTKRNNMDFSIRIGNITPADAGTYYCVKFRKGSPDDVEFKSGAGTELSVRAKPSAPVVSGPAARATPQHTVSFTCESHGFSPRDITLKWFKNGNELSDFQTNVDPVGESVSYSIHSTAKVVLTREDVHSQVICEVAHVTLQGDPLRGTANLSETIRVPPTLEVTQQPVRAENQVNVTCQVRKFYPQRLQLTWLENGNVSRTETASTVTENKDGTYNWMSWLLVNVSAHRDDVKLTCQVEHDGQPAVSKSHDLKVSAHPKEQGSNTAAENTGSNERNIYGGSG
Procedure: as §3, §4
(§5) The above procedures are used to measure binding properties of antibodies of the present disclosure. For each analyte used, the highest concentration was as indicated in Example 3 (see Table 36).

[7] = molecular target: T9, Human SIRPαV2 (CAA71403.1), Extracellular Domain + His-Tag (human, UniProt P78324 31-373); assay: as above
T9 construct: also called huSIRPαV2; hSIRPαV2; not shown: His-Tag
T9 sequence (P78324 other isoform, or with tags, fused parts or gaps): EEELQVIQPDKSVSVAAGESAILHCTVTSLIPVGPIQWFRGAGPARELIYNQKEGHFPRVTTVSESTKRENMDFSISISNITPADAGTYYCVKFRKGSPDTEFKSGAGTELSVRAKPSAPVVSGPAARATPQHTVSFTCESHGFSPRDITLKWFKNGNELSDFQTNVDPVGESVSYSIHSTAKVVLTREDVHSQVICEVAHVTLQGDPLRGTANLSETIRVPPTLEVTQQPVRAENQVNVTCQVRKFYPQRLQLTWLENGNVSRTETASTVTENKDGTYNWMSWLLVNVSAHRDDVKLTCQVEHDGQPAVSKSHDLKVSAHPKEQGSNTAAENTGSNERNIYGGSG
Procedure: as §3, §4, §5

[8] = molecular target: T6, cynoSIRPα (NP_001271679), Extracellular …; assay: as above
Procedure: as §3, §4, §5

[9] = molecular target: T7, cynoSIRPα (XP_015313155), Extracellular …; assay: as above
Procedure: as §3, §4, §5

Row | binding result [1] | binding result [2] | binding result [3] | Kd [4] | binding result [5] | Kd [6] | koff [6] | kon [6] | Kd [7] | koff [7] | kon [7] | Kd [8] | koff [8] | kon [8] | Kd [9] | koff [9] | kon [9] | Binder
1 | – | – | – | – | no binding (tested: 1000 nM) | 0.91 nM | 0.000419 s⁻¹ | 459000 M⁻¹ s⁻¹ | 0.69 nM | 0.000367 s⁻¹ | 535000 M⁻¹ s⁻¹ | 20.7 nM | 0.00526 s⁻¹ | 254000 M⁻¹ s⁻¹ | 19.7 nM | 0.00512 s⁻¹ | 260000 M⁻¹ s⁻¹ | Antibody E2 (antibody, human IgG1, kappa, L234A L235A, V domains shown) VH: QVQLQESGPGLVRPSETLSLTCTVSGGSIRNYYWSWIRQPPGKGLEWIGFIYYNGRTFYNPSLKSRVTISLDMSINQFSLKMTSVTAADTAVYYCARVRAYSGIGLDGTDVWGQGTTVTVSS VL: DIVMTQSPLSLPVTPGEPASISCKSSQSLLYSNGYAYLDWYLQRPGQSPQLLIYLGSNRASGVPDRFSGSGSGTDFTLKISRVEAEDVGVYYCMQALQTPLTFGGGTKVEIKR
2 | – | – | – | – | no binding (tested: 1000 nM) | 0.72 nM | 0.000299 s⁻¹ | 414000 M⁻¹ s⁻¹ | 0.63 nM | 0.00033 s⁻¹ | 523000 M⁻¹ s⁻¹ | 17.9 nM | 0.00327 s⁻¹ | 183000 M⁻¹ s⁻¹ | 16.7 nM | 0.00317 s⁻¹ | 190000 M⁻¹ s⁻¹ | Antibody E1 (antibody, human IgG1, kappa, L234A L235A, V domains shown) VH: QVQLQESGPGLVRPSETLSLTCTVSGGSIRNYYWSWIRQPPGKGLEWIGFIYYNGRTFYNPSLKSRVTISLDMSINQFSLKMTSVTAADTAVYYCARVRAYSGIGLDGTDVWGQGTTVTVSS VL: DIVMTQSPLSLPVTPGEPASISCKSSQSLLYSNGYAYLDWYLQRPGQSPQLLIYQGSNRASGVPDRFSGSGSGTDFTLKISRVEAEDVGVFYCMQALQTPLTFGGGTKVEIKR

Second part, the binder before the results:

Row | Binder | binding result [1] | binding result [2] | binding result [3] | Kd [4] | binding result [5] | Kd [6] | koff [6] | kon [6] | Kd [7] | koff [7] | kon [7] | Kd [8] | koff [8] | kon [8] | Kd [9] | koff [9] | kon [9]
3 | Antibody E20 (antibody, human IgG1, kappa, L234A L235A, V domains shown) VH: QVQLQESGPGLVRPSETLSLTCTVSGGSIRNYYWSWIRQPPGKGLEWIGFIYYTGRTFYNPSLKSRVTISLDMSINQFSLKMTSVTAADTAVYYCARVRAYSGIGLDGTDVWGQGTTVTVSS VL: DIVMTQSPLSLPVTPGEPASISCKSSQSLLYSNAYNYLDWYLQRPGQSPQLLIYLGSNRASGVPDRFSGSGSGTDFTLKISRVEAEDVGVYYCMQALQTPLTFGGGTKVEIKR | no binding (tested: 1000 nM) | no binding (tested: 1000 nM) | no binding (tested: 1000 nM) | 57.4 nM | – | – | – | – | – | – | – | – | – | – | – | – | –
4 | Antibody E4 (antibody, human IgG1, kappa, L234A L235A, V domains shown) VH: QVQLQESGPGLVRPSETLSLTCTVSGGSIRNYYWSWIRQPPGKGLEWIGFIYYNGRTFYNPSLKSRVTISLDMSKNQFSLKMTSVTAADTAVYYCARVRAYSGIGLDGTDVWGQGTTVTVSS VL: DIVMTQSPLSLPVTPGEPASISCKSSQSLLYSNGYAYLDWYLQRPGQSPQLLIYLGSNRASGVPDRFSGSGSGTDFTLKISRVEAEDVGVYYCMQALQTPLTFGGGTKVEIKR | no binding (tested: 1000 nM) | no binding (tested: 1000 nM) | no binding (tested: 1000 nM) | 13.1 nM | – | – | – | – | – | – | – | – | – | – | – | – | –
5 | Antibody E21 (antibody, human IgG1, kappa, L234A L235A, V domains shown) VH: QVQLQESGPGLVRPSETLSLTCTVSGGSIRNYYWSWIRQPPGKGLEWIGFIYYTGRTFYNPSLKSRVTISLDMSKNQFSLKMTSVTAADTAVYYCARVRAYSGIGLDGTDVWGQGTTVTVSS VL: DIVMTQSPLSLPVTPGEPASISCKSSQSLLYSNAYNYLDWYLQRPGQSPQLLIYLGSNRASGVPDRFSGSGSGTDFTLKISRVEAEDVGVYYCMQALQTPLTFGGGTKVEIKR | no binding (tested: 1000 nM) | no binding (tested: 1000 nM) | no binding (tested: 1000 nM) | 56.5 nM | – | – | – | – | – | – | – | – | – | – | – | – | –
